{"source": "patent CN116284393A", "about": "(BEIJING DONGFANG BIOTECH CO LTD, dated 2023)", "binders": {"B1": {"name": "MG-Ⅰ 单克隆抗体 (mouse IgG1 / Ck full antibody) (antibody, V domains shown)", "VH": "EVKLEESGGGLVKPGGSLKLSCAASGFTFSSNTMSWVRQTPEKRLEWVATISSGGSYIYYRDSVKGRFTISRDNAKNTLYLQMSSLKSEDTAMYYCTSEGRSRDPYYYSMDYWGQGTSVTVSS", "VL": "DIVLTQTPLSLPVSLGDQASISCRSSQSLVHSNGNTYLHWYLQKPGQSPKLLIYKVSNRFSGVPDRFSGSGSGTDFTLKISRVEAEDLGVYFCSQSTHVPTFGAGTKLELKA", "notes": "also called 单克隆抗体MG-Ⅰ"}}, "key": {"[1]": {"molecular_target": "T1, 人单核细胞白血病细胞(THP-1)表面LILRB4 (human, UniProt Q8NHJ6 22-448)", "experiment": "cell-based or functional assay"}, "LILRA5 [2]": {"molecular_target": "T2, LILRA5 (UniProt A6NI73 42-268, limits assumed)", "T2 sequence (A6NI73 42-268 limits assumed)": "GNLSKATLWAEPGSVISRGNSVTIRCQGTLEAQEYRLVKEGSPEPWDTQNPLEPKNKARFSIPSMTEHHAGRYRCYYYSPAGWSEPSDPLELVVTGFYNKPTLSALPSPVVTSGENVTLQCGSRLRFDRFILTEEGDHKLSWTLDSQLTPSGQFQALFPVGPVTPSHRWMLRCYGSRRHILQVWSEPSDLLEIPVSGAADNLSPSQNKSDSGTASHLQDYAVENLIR", "experiment": "ELISA, coated protein 100ng/well"}, "LILRA6 [3]": {"molecular_target": "T3, LILRA6 (UniProt Q6PI73 24-447, limits assumed)", "T3 sequence (Q6PI73 24-447 limits assumed)": "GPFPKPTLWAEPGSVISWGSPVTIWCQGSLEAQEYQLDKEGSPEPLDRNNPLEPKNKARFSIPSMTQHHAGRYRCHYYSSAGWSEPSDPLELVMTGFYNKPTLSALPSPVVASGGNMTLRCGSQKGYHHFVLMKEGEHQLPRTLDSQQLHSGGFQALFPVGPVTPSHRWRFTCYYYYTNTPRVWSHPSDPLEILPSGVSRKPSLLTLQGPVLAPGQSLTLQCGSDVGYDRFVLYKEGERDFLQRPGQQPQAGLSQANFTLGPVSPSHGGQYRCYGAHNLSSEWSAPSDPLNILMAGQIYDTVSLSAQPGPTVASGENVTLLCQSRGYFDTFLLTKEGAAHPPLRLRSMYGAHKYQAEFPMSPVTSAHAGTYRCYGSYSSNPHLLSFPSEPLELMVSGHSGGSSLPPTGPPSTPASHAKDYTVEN", "experiment": "ELISA, coated protein 100ng/well"}, "LILRB1 [4]": {"molecular_target": "T4, LILRB1 (UniProt Q8NHL6 24-461, limits assumed)", "T4 sequence (Q8NHL6 24-461 limits assumed)": "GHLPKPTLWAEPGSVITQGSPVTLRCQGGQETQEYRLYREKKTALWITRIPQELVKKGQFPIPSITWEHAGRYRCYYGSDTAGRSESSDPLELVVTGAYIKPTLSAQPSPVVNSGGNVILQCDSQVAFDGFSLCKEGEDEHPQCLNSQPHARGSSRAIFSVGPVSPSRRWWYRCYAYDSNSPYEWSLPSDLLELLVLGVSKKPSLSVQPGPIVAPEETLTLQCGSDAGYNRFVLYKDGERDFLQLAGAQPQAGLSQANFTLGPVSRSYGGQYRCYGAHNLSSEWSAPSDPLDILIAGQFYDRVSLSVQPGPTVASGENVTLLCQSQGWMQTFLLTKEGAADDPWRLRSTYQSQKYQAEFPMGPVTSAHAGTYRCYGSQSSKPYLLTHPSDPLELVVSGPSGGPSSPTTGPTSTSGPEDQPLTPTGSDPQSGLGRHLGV", "experiment": "ELISA, coated protein 100ng/well"}, "LILRB2 [5]": {"molecular_target": "T5, LILRB2 (UniProt Q8N423 22-460, limits assumed)", "T5 sequence (Q8N423 22-460 limits assumed)": "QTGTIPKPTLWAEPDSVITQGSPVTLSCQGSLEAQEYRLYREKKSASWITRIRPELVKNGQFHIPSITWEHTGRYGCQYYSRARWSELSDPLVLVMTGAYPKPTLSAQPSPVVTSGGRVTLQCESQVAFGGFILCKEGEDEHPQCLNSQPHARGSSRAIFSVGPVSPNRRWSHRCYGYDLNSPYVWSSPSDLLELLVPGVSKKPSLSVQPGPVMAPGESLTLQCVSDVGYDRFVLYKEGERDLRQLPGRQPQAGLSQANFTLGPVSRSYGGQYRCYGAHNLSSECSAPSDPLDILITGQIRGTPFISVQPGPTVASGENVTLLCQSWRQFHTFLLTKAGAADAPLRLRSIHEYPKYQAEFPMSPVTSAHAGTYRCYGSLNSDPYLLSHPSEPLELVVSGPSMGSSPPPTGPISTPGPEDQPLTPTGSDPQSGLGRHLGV", "experiment": "ELISA, coated protein 100ng/well"}, "LILRB3 [6]": {"molecular_target": "T6, LILRB3 (UniProt O75022 24-443, limits assumed)", "T6 sequence (O75022 24-443 limits assumed)": "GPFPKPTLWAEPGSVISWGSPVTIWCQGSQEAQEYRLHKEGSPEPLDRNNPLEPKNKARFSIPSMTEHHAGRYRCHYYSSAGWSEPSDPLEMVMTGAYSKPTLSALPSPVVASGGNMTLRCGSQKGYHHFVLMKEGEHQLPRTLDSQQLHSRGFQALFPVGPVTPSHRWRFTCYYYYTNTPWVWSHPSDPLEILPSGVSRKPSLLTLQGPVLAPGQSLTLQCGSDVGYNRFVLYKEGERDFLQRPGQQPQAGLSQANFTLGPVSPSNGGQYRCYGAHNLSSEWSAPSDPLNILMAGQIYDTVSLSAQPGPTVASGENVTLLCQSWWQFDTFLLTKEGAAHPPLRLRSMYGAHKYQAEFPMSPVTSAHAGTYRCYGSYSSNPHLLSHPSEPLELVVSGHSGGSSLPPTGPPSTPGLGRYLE", "experiment": "ELISA, coated protein 100ng/well"}, "LILRB5 [7]": {"molecular_target": "T7, LILRB5 (UniProt O75023 24-458, limits assumed)", "T7 sequence (O75023 24-458 limits assumed)": "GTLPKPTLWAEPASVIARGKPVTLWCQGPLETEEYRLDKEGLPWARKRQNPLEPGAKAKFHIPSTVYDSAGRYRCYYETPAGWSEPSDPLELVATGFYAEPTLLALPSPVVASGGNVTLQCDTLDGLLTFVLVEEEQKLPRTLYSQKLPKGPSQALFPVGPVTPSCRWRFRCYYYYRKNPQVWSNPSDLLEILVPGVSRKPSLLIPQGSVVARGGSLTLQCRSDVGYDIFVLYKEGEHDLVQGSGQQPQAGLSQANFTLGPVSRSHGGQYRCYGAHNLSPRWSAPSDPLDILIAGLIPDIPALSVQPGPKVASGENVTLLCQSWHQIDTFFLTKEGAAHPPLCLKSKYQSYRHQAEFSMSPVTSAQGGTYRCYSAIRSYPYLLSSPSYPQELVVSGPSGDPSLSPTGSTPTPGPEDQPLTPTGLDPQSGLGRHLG", "experiment": "ELISA, coated protein 100ng/well"}, "LILRA1 [8]": {"molecular_target": "T8, LILRA1 (UniProt O75019 17-461, limits assumed)", "T8 sequence (O75019 17-461 limits assumed)": "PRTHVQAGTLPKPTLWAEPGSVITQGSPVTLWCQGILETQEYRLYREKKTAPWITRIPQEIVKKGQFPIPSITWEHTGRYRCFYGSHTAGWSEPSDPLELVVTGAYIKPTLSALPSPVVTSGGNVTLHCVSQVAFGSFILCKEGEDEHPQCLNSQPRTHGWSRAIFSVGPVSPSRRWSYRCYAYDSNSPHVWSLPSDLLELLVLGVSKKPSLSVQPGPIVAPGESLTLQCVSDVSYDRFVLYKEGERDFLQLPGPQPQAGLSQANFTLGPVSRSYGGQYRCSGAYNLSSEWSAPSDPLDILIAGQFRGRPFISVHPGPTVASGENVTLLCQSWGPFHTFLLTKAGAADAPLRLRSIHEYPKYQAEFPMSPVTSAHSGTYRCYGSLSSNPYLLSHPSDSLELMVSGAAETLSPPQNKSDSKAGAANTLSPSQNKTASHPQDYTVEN", "experiment": "ELISA, coated protein 100ng/well"}, "LILRA2 [9]": {"molecular_target": "T9, LILRA2 (UniProt Q8N149 24-449, limits assumed)", "T9 sequence (Q8N149 24-449 limits assumed)": "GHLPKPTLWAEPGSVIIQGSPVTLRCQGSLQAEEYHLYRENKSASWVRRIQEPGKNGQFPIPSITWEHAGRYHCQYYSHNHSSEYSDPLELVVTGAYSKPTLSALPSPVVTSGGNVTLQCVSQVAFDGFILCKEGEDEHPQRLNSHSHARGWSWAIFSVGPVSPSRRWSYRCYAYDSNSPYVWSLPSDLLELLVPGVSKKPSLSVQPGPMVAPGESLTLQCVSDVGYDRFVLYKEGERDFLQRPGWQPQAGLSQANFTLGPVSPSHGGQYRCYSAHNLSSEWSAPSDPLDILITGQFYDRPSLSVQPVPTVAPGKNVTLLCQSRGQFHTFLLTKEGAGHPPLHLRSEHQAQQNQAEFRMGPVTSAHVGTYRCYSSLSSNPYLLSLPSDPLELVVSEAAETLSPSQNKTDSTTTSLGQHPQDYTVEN", "experiment": "ELISA, coated protein 100ng/well"}, "LILRA3 [10]": {"molecular_target": "T10, LILRA3 (UniProt Q8N6C8 24-439)", "T10 sequence (Q8N6C8 24-439 limits assumed)": "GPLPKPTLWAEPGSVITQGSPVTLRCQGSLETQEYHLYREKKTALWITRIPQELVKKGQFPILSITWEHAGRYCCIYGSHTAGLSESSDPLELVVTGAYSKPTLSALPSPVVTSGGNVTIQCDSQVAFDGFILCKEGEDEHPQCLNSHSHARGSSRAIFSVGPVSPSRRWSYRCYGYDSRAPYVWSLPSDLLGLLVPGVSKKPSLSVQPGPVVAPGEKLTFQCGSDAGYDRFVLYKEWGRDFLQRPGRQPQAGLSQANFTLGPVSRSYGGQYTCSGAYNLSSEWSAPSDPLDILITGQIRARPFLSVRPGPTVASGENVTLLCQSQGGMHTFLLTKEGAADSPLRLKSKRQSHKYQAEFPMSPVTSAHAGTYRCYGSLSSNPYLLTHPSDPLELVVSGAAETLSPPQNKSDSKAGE", "experiment": "ELISA, coated protein 100ng/well"}, "LILRA4 [11]": {"molecular_target": "T11, LILRA4 (UniProt P59901 24-446, limits assumed)", "T11 sequence (P59901 24-446 limits assumed)": "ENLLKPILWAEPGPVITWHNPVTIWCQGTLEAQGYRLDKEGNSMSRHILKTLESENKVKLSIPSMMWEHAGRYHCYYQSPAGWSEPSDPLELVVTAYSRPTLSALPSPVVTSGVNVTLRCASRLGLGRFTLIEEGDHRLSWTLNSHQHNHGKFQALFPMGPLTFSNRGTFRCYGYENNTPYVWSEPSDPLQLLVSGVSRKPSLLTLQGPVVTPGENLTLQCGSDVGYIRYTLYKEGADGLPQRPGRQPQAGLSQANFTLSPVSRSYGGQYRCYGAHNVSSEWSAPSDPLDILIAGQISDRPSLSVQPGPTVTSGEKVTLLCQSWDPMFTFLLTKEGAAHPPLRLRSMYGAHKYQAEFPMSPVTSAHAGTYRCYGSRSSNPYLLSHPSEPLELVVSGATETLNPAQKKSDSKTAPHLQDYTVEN", "experiment": "ELISA, coated protein 100ng/well"}, "LILRA5 [12]": {"molecular_target": "T2, LILRA5", "experiment": "ELISA, coated protein, antibody at 50μg/mL"}, "LILRA6 [13]": {"molecular_target": "T3, LILRA6", "experiment": "ELISA, coated protein, antibody at 50μg/mL"}, "LILRB1 [14]": {"molecular_target": "T4, LILRB1", "experiment": "ELISA, coated protein, antibody at 50μg/mL"}, "LILRB2 [15]": {"molecular_target": "T5, LILRB2", "experiment": "ELISA, coated protein, antibody at 50μg/mL"}, "LILRB3 [16]": {"molecular_target": "T6, LILRB3", "experiment": "ELISA, coated protein, antibody at 50μg/mL"}, "LILRB5 [17]": {"molecular_target": "T7, LILRB5", "experiment": "ELISA, coated protein, antibody at 50μg/mL"}, "LILRB4抗原 (人LILRB4蛋白胞外段) [18]": {"molecular_target": "T12, LILRB4抗原 (人LILRB4蛋白胞外段) (human, UniProt Q8NHJ6 22-259)", "T12 construct": "extracellular domain; Made in house from a synthesised gene", "experiment": "ELISA, coated protein, antibody at 50μg/mL"}, "LILRA1 [19]": {"molecular_target": "T8, LILRA1", "experiment": "ELISA, coated protein, antibody at 50μg/mL"}, "LILRA2 [20]": {"molecular_target": "T9, LILRA2", "experiment": "ELISA, coated protein, antibody at 50μg/mL"}, "LILRA3 [21]": {"molecular_target": "T10, LILRA3", "experiment": "ELISA, coated protein, antibody at 50μg/mL"}, "LILRA4 [22]": {"molecular_target": "T11, LILRA4", "experiment": "ELISA, coated protein, antibody at 50μg/mL"}, "LILRB4抗原 (人LILRB4蛋白胞外段) [23]": {"molecular_target": "T12, LILRB4抗原 (人LILRB4蛋白胞外段)", "experiment": "ELISA, coated LILRB4, Goat Anti-Mouse IgG-HRP"}, "[24]": {"molecular_target": "T1, 人单核细胞白血病细胞(THP-1)表面LILRB4", "experiment": "flow cytometry on THP-1 cells, FITC goat anti-mouse IgG"}, "[25]": {"molecular_target": "T1, 人单核细胞白血病细胞(THP-1)表面LILRB4", "experiment": "flow cytometry competition on THP-1 cells, competitor FITC-labelled ApoE 0.4μg/mL"}}, "data": [{"binder": "B1", "values": [{"measurement": "IC50(μg/mL), 抑制THP-1分泌ARG1 (arginase activity in supernatant, with 0.5μg/mL ApoE)", "setting": "[1]", "value": 257, "unit": "µg/mL"}, {"measurement": "binding result", "setting": "LILRA5 [2]", "value": "no binding (tested: 50μg/mL)"}, {"measurement": "binding result", "setting": "LILRA6 [3]", "value": "no binding (tested: 50μg/mL)"}, {"measurement": "binding result", "setting": "LILRB1 [4]", "value": "no binding (tested: 50μg/mL)"}, {"measurement": "binding result", "setting": "LILRB2 [5]", "value": "no binding (tested: 50μg/mL)"}, {"measurement": "binding result", "setting": "LILRB3 [6]", "value": "no binding (tested: 50μg/mL)"}, {"measurement": "binding result", "setting": "LILRB5 [7]", "value": "no binding (tested: 50μg/mL)"}, {"measurement": "binding result", "setting": "LILRA1 [8]", "value": "no binding (tested: 50μg/mL)"}, {"measurement": "binding result", "setting": "LILRA2 [9]", "value": "no binding (tested: 50μg/mL)"}, {"measurement": "binding result", "setting": "LILRA3 [10]", "value": "no binding (tested: 50μg/mL)"}, {"measurement": "binding result", "setting": "LILRA4 [11]", "value": "no binding (tested: 50μg/mL)"}, {"measurement": "OD 450nm/630nm", "setting": "LILRA5 [12]", "value": 0.066}, {"measurement": "OD 450nm/630nm", "setting": "LILRA6 [13]", "value": 0.053}, {"measurement": "OD 450nm/630nm", "setting": "LILRB1 [14]", "value": 0.045}, {"measurement": "OD 450nm/630nm", "setting": "LILRB2 [15]", "value": 0.04}, {"measurement": "OD 450nm/630nm", "setting": "LILRB3 [16]", "value": 0.05}, {"measurement": "OD 450nm/630nm", "setting": "LILRB5 [17]", "value": 0.176}, {"measurement": "OD 450nm/630nm", "setting": "LILRB4抗原 (人LILRB4蛋白胞外段) [18]", "value": 2.72}, {"measurement": "OD 450nm/630nm", "setting": "LILRA1 [19]", "value": 0.103}, {"measurement": "OD 450nm/630nm", "setting": "LILRA2 [20]", "value": 0.046}, {"measurement": "OD 450nm/630nm", "setting": "LILRA3 [21]", "value": 0.057}, {"measurement": "OD 450nm/630nm", "setting": "LILRA4 [22]", "value": 0.077}, {"measurement": "EC50", "setting": "LILRB4抗原 (人LILRB4蛋白胞外段) [23]", "value": 0.188, "unit": "µg/mL"}, {"measurement": "EC50", "setting": "[24]", "value": 4.31, "unit": "µg/mL"}, {"measurement": "IC50", "setting": "[25]", "value": 7.18, "unit": "µg/mL"}]}]}
